Test [1] addresses T1, plexin B1-PA (extracellular region of human plexin B1 with a PA tag at the C terminal) (human, UniProt O43157 20-1490).
T1 construct: extracellular domain; Soluble receptor fragment expressed in Expi293F cells; Culture supernatant in the pulldown tests, purified for the sandwich tests; also called hPlexB1; plexin B1-BA; not shown: PA tag (Wako Pure Chemical Industries)
T1 sequence (looked up): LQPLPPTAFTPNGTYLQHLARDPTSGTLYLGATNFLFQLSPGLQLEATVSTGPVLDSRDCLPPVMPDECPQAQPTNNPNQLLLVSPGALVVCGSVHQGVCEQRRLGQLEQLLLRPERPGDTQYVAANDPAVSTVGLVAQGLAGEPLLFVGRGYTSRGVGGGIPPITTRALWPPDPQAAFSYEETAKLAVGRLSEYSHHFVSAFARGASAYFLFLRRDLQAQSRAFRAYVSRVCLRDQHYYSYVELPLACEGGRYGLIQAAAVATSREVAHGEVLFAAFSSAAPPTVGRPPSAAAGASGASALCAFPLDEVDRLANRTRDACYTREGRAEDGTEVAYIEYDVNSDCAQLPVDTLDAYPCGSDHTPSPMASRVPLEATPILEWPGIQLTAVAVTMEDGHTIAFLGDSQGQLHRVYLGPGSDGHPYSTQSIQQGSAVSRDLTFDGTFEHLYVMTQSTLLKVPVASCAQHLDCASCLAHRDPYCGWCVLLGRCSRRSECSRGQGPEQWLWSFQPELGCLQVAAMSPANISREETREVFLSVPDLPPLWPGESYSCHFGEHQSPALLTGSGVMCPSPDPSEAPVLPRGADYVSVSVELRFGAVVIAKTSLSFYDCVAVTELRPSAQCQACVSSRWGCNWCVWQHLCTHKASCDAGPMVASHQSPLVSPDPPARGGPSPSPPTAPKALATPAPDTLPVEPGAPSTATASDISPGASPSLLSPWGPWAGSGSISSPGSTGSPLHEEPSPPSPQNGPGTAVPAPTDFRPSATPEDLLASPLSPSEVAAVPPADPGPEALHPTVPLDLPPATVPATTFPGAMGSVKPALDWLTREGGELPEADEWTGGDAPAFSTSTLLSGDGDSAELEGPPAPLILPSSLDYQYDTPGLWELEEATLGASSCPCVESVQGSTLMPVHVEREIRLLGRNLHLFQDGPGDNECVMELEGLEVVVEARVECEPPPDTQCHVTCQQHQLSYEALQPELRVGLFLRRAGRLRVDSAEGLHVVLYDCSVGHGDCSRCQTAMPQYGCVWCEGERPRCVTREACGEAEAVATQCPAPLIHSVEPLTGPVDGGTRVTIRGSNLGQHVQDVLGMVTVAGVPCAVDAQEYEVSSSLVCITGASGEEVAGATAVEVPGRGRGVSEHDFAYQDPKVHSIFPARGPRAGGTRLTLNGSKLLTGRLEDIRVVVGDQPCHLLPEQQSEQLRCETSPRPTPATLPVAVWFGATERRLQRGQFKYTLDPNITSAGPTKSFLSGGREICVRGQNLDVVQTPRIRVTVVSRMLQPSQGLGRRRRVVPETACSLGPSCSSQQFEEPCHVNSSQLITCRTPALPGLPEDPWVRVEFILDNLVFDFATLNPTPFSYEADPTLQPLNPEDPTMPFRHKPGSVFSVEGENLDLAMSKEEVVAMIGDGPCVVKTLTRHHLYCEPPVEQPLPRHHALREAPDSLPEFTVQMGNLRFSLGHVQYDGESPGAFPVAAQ
Put plainly: sandwich ELISA type test: plexin B1-PA on plate, Fab supernatant, detection with Nrp1ec-AP, A405. (In general: An ELISA detects its analyte on a solid surface through an enzyme-linked reagent.)

The target of test [2] is T2, Met-PA (extracellular region of a human Met receptor with a PA tag at the C terminal) (human, UniProt P08581 25-932).
T2 construct: extracellular domain; Soluble receptor fragment expressed in Expi293F cells; also called second target antigen; not shown: PA tag
T2 sequence (P08581 25-932): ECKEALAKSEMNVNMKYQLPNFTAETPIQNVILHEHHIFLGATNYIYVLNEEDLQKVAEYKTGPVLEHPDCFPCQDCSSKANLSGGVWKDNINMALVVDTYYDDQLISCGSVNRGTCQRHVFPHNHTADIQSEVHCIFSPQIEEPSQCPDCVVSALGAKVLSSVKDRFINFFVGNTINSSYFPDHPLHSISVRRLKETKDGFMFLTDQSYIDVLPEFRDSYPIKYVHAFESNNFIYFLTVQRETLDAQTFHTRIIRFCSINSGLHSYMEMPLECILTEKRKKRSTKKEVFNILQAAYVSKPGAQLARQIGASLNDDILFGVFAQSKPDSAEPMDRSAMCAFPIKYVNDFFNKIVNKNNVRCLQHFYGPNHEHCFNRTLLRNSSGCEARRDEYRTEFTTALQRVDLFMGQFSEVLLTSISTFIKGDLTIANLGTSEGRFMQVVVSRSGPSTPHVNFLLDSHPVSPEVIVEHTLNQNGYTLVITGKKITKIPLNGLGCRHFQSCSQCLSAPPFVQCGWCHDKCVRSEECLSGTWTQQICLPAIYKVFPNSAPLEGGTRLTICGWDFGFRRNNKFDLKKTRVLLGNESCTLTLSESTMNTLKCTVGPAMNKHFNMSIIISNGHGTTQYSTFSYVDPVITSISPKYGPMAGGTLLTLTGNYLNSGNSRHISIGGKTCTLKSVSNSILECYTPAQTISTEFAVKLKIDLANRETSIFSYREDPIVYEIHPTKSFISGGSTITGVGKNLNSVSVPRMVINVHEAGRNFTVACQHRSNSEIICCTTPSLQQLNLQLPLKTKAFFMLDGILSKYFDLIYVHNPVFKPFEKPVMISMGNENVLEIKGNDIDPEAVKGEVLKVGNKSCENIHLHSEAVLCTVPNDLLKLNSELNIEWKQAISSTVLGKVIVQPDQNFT
Put plainly: sandwich ELISA type test: Met-PA on plate, Fab supernatant, detection with Nrp1ec-AP, A405.

B1: N1_Fab having no peptide inserted therein (Fab, V domains shown)
VH: EVQLVESGGGLVQPGGSLRLSCAASGFSFSSEPISWVRQAPGKGLEWVSSITGKNGYTYYADSVKGRFTISADTSKNTAYLQMNSLRAEDTAVYYCARWGKKVYGMDVWGQGTLVTVSS
VL: DIQMTQSPSSLSASVGDRVTITCRASQSISSYLAWYQQKPGKAPKLLIYGASSRASGVPSRFSGSGSGTDFTLTISSLQPEDFATYYCQQYMSVPITFGQGTKVEIKR
notes: Unfused control Fab, used as culture supernatant; also called Fab of human IgG1 monoclonal antibody N1 (clone name YW64.3) against neuropilin 1
Turning to B1, the binding result in test [1] and in test [2] was “no binding” in each case.

The values above are taken from patent US20210221849A1 (MIRABIOLOGICS, published 2021).
